Reference: patent US20210246166A1 (Bayer, published 2021)
Bridge positions count the residues as written; N and C are the ends. Square brackets hold non-standard residues; d marks the D form. Ends that are not written are not given here. Pro(cis-4-CF3) = O=C(O)[C@@H]1C[C@H](C(F)(F)F)CN1; Oic = O=C(O)[C@@H]1C[C@@H]2CCCC[C@@H]2N1; Nva(3-Et) = CCC(CC)[C@H](N)C(=O)O; NMeI = CC[C@H](C)[C@H](NC)C(=O)O; tBuAla = CC(C)(C)C[C@H](N)C(=O)O; Chg = N[C@H](C(=O)O)C1CCCCC1; Pen = CC(C)(S)[C@H](N)C(=O)O; NMeC = CN[C@@H](CS)C(=O)O; NMeA = CN[C@@H](C)C(=O)O; Orn = NCCC[C@H](N)C(=O)O; Nva = CCC[C@H](N)C(=O)O; Abu = CC[C@H](N)C(=O)O

B1: Example 108: AIC+SRS-((tBu)A)-P-(Oic)-I-(Pen)+IPD-NH2 (peptide)
peptide: AICSRS[tBuAla]P[Oic]I[Pen]IPD-NH2
modifications: disulfide 3-11; N-terminus assumed
SMILES: CC[C@H](C)[C@H](NC(=O)[C@H](C)N)C(=O)N[C@H]1CSSC(C)(C)[C@@H](C(=O)N[C@H](C(=O)N2CCC[C@H]2C(=O)N[C@@H](CC(=O)O)C(N)=O)[C@@H](C)CC)NC(=O)[C@H]([C@@H](C)CC)NC(=O)[C@@H]2C[C@@H]3CCCC[C@@H]3N2C(=O)[C@@H]2CCCN2C(=O)[C@H](CC(C)(C)C)NC(=O)[C@H](CO)NC(=O)[C@H](CCCNC(=N)N)NC(=O)[C@H](CO)NC1=O
B2: Example 175: ((N-Me)A)-IC+SRS-((tBu)A)-PPI-((N-Me)C)+IPD-NH2 (peptide)
peptide: [NMeA]ICSRS[tBuAla]PPI[NMeC]IPD-NH2
modifications: disulfide 3-11; N-terminus assumed
SMILES: CC[C@H](C)[C@H](NC(=O)[C@H](C)NC)C(=O)N[C@H]1CSSC[C@@H](C(=O)N[C@H](C(=O)N2CCC[C@H]2C(=O)N[C@@H](CC(=O)O)C(N)=O)[C@@H](C)CC)N(C)C(=O)[C@H]([C@@H](C)CC)NC(=O)[C@@H]2CCCN2C(=O)[C@@H]2CCCN2C(=O)[C@H](CC(C)(C)C)NC(=O)[C@H](CO)NC(=O)[C@H](CCCNC(=N)N)NC(=O)[C@H](CO)NC1=O
B3: Example 154: HIC+SRS-((tBu)A)-PPI-((N-Me)C)+I-NH2 (peptide)
peptide: HICSRS[tBuAla]PPI[NMeC]I-NH2
modifications: disulfide 3-11; N-terminus assumed
SMILES: CC[C@H](C)[C@H](NC(=O)[C@@H]1CSSC[C@H](NC(=O)[C@@H](NC(=O)[C@@H](N)Cc2c[nH]cn2)[C@@H](C)CC)C(=O)N[C@@H](CO)C(=O)N[C@@H](CCCNC(=N)N)C(=O)N[C@@H](CO)C(=O)N[C@@H](CC(C)(C)C)C(=O)N2CCC[C@H]2C(=O)N2CCC[C@H]2C(=O)N[C@@H]([C@@H](C)CC)C(=O)N1C)C(N)=O
B4: Example 209: AIC+SRSLPP-((S)-2-amino-3-ethyl-pentanoic acid)-C+IPD-NH2 (peptide)
peptide: AICSRSLPP[Nva(3-Et)]CIPD-NH2
modifications: disulfide 3-11; N-terminus assumed
SMILES: CCC(CC)[C@@H]1NC(=O)[C@@H]2CCCN2C(=O)[C@@H]2CCCN2C(=O)[C@H](CC(C)C)NC(=O)[C@H](CO)NC(=O)[C@H](CCCNC(=N)N)NC(=O)[C@H](CO)NC(=O)[C@@H](NC(=O)[C@@H](NC(=O)[C@H](C)N)[C@@H](C)CC)CSSC[C@@H](C(=O)N[C@H](C(=O)N2CCC[C@H]2C(=O)N[C@@H](CC(=O)O)C(N)=O)[C@@H](C)CC)NC1=O
B5: Example 210: AIC+SRS-((tBu)A)-PPIC+IDD-OH (peptide)
peptide: AICSRS[tBuAla]PPICIDD-OH
modifications: disulfide 3-11; N-terminus assumed
SMILES: CC[C@H](C)[C@H](NC(=O)[C@H](C)N)C(=O)N[C@H]1CSSC[C@@H](C(=O)N[C@H](C(=O)N[C@@H](CC(=O)O)C(=O)N[C@@H](CC(=O)O)C(=O)O)[C@@H](C)CC)NC(=O)[C@H]([C@@H](C)CC)NC(=O)[C@@H]2CCCN2C(=O)[C@@H]2CCCN2C(=O)[C@H](CC(C)(C)C)NC(=O)[C@H](CO)NC(=O)[C@H](CCCNC(=N)N)NC(=O)[C@H](CO)NC1=O
B6: Example 223: WIC+SRS-((tBu)A)-PPI-((N-Me)C)+I-NH2 (peptide)
peptide: WICSRS[tBuAla]PPI[NMeC]I-NH2
modifications: disulfide 3-11; N-terminus assumed
SMILES: CC[C@H](C)[C@H](NC(=O)[C@@H]1CSSC[C@H](NC(=O)[C@@H](NC(=O)[C@@H](N)Cc2c[nH]c3ccccc23)[C@@H](C)CC)C(=O)N[C@@H](CO)C(=O)N[C@@H](CCCNC(=N)N)C(=O)N[C@@H](CO)C(=O)N[C@@H](CC(C)(C)C)C(=O)N2CCC[C@H]2C(=O)N2CCC[C@H]2C(=O)N[C@@H]([C@@H](C)CC)C(=O)N1C)C(N)=O
B7: Example 225: (Orn)-IC+SRSLPP-(Chg)-C+IPD-OH (peptide)
peptide: [Orn]ICSRSLPP[Chg]CIPD-OH
modifications: disulfide 3-11; N-terminus assumed
SMILES: CC[C@H](C)[C@H](NC(=O)[C@@H](N)CCCN)C(=O)N[C@H]1CSSC[C@@H](C(=O)N[C@H](C(=O)N2CCC[C@H]2C(=O)N[C@@H](CC(=O)O)C(=O)O)[C@@H](C)CC)NC(=O)[C@H](C2CCCCC2)NC(=O)[C@@H]2CCCN2C(=O)[C@@H]2CCCN2C(=O)[C@H](CC(C)C)NC(=O)[C@H](CO)NC(=O)[C@H](CCCNC(=N)N)NC(=O)[C@H](CO)NC1=O
B8: Example 205: G-((N-Me)I)-C+SRSLPPIC+IPD-NH2 (HCl salt) (peptide)
peptide: G[NMeI]CSRSLPPICIPD-NH2
modifications: disulfide 3-11; also: HCl salt
B9: Example 182: YIC+SRS-((tBu)A)-PPI-((N-Me)C)+I-NH2 (peptide)
peptide: YICSRS[tBuAla]PPI[NMeC]I-NH2
modifications: disulfide 3-11; N-terminus assumed
SMILES: CC[C@H](C)[C@H](NC(=O)[C@@H]1CSSC[C@H](NC(=O)[C@@H](NC(=O)[C@@H](N)Cc2ccc(O)cc2)[C@@H](C)CC)C(=O)N[C@@H](CO)C(=O)N[C@@H](CCCNC(=N)N)C(=O)N[C@@H](CO)C(=O)N[C@@H](CC(C)(C)C)C(=O)N2CCC[C@H]2C(=O)N2CCC[C@H]2C(=O)N[C@@H]([C@@H](C)CC)C(=O)N1C)C(N)=O
B10: Example 186: (Orn)-IC+SRS-((tBu)A)-PPIC+I-NH2 (peptide)
peptide: [Orn]ICSRS[tBuAla]PPICI-NH2
modifications: disulfide 3-11; N-terminus assumed
SMILES: CC[C@H](C)[C@H](NC(=O)[C@@H]1CSSC[C@H](NC(=O)[C@@H](NC(=O)[C@@H](N)CCCN)[C@@H](C)CC)C(=O)N[C@@H](CO)C(=O)N[C@@H](CCCNC(=N)N)C(=O)N[C@@H](CO)C(=O)N[C@@H](CC(C)(C)C)C(=O)N2CCC[C@H]2C(=O)N2CCC[C@H]2C(=O)N[C@@H]([C@@H](C)CC)C(=O)N1)C(N)=O
B11: Example 128: AIC+SRS-((tBu)A)-P-((4-CF3)P)-I-((N-Me)C)+IPD-NH2 (peptide)
peptide: AICSRS[tBuAla]P[Pro(cis-4-CF3)]I[NMeC]IPD-NH2
modifications: disulfide 3-11; N-terminus assumed
SMILES: CC[C@H](C)[C@H](NC(=O)[C@H](C)N)C(=O)N[C@H]1CSSC[C@@H](C(=O)N[C@H](C(=O)N2CCC[C@H]2C(=O)N[C@@H](CC(=O)O)C(N)=O)[C@@H](C)CC)N(C)C(=O)[C@H]([C@@H](C)CC)NC(=O)[C@@H]2C[C@H](C(F)(F)F)CN2C(=O)[C@@H]2CCCN2C(=O)[C@H](CC(C)(C)C)NC(=O)[C@H](CO)NC(=O)[C@H](CCCNC(=N)N)NC(=O)[C@H](CO)NC1=O
B12: Example 216: (Nva)-IC+SRSLPPIC+IPD-NH2 (peptide)
peptide: [Nva]ICSRSLPPICIPD-NH2
modifications: disulfide 3-11; N-terminus assumed
SMILES: CCC[C@H](N)C(=O)N[C@H](C(=O)N[C@H]1CSSC[C@@H](C(=O)N[C@H](C(=O)N2CCC[C@H]2C(=O)N[C@@H](CC(=O)O)C(N)=O)[C@@H](C)CC)NC(=O)[C@H]([C@@H](C)CC)NC(=O)[C@@H]2CCCN2C(=O)[C@@H]2CCCN2C(=O)[C@H](CC(C)C)NC(=O)[C@H](CO)NC(=O)[C@H](CCCNC(=N)N)NC(=O)[C@H](CO)NC1=O)[C@@H](C)CC
B13: Example 169: (Abu)-IC+SRSLPP-(Chg)-C+IPD-NH2 (peptide)
peptide: [Abu]ICSRSLPP[Chg]CIPD-NH2
modifications: disulfide 3-11; N-terminus assumed
SMILES: CC[C@H](N)C(=O)N[C@H](C(=O)N[C@H]1CSSC[C@@H](C(=O)N[C@H](C(=O)N2CCC[C@H]2C(=O)N[C@@H](CC(=O)O)C(N)=O)[C@@H](C)CC)NC(=O)[C@H](C2CCCCC2)NC(=O)[C@@H]2CCCN2C(=O)[C@@H]2CCCN2C(=O)[C@H](CC(C)C)NC(=O)[C@H](CO)NC(=O)[C@H](CCCNC(=N)N)NC(=O)[C@H](CO)NC1=O)[C@@H](C)CC
B14: Example 222: AIC+SRSLPP-(Chg)-C+IPD-OH (peptide)
peptide: AICSRSLPP[Chg]CIPD-OH
modifications: disulfide 3-11; N-terminus assumed
SMILES: CC[C@H](C)[C@H](NC(=O)[C@H](C)N)C(=O)N[C@H]1CSSC[C@@H](C(=O)N[C@H](C(=O)N2CCC[C@H]2C(=O)N[C@@H](CC(=O)O)C(=O)O)[C@@H](C)CC)NC(=O)[C@H](C2CCCCC2)NC(=O)[C@@H]2CCCN2C(=O)[C@@H]2CCCN2C(=O)[C@H](CC(C)C)NC(=O)[C@H](CO)NC(=O)[C@H](CCCNC(=N)N)NC(=O)[C@H](CO)NC1=O
B15: Example 123: AIC+SRSLP-(Oic)-I-((N-Me)C)+IP-NH2 (peptide)
peptide: AICSRSLP[Oic]I[NMeC]IP-NH2
modifications: disulfide 3-11; N-terminus assumed
SMILES: CC[C@H](C)[C@H](NC(=O)[C@H](C)N)C(=O)N[C@H]1CSSC[C@@H](C(=O)N[C@H](C(=O)N2CCC[C@H]2C(N)=O)[C@@H](C)CC)N(C)C(=O)[C@H]([C@@H](C)CC)NC(=O)[C@@H]2C[C@@H]3CCCC[C@@H]3N2C(=O)[C@@H]2CCCN2C(=O)[C@H](CC(C)C)NC(=O)[C@H](CO)NC(=O)[C@H](CCCNC(=N)N)NC(=O)[C@H](CO)NC1=O
B16: Example 181: FIC+SRS-((tBu)A)-PPI-((N-Me)C)+I-NH2 (peptide)
peptide: FICSRS[tBuAla]PPI[NMeC]I-NH2
modifications: disulfide 3-11; N-terminus assumed
SMILES: CC[C@H](C)[C@H](NC(=O)[C@@H]1CSSC[C@H](NC(=O)[C@@H](NC(=O)[C@@H](N)Cc2ccccc2)[C@@H](C)CC)C(=O)N[C@@H](CO)C(=O)N[C@@H](CCCNC(=N)N)C(=O)N[C@@H](CO)C(=O)N[C@@H](CC(C)(C)C)C(=O)N2CCC[C@H]2C(=O)N2CCC[C@H]2C(=O)N[C@@H]([C@@H](C)CC)C(=O)N1C)C(N)=O

What follows are binders tested against T1, recombinant rat MASP1 active protease (amino acids 302-704, C-terminal His Tag) (rat, UniProt Q8CHN8 302-704) (assay: cell-based or functional assay).
T1 sequence: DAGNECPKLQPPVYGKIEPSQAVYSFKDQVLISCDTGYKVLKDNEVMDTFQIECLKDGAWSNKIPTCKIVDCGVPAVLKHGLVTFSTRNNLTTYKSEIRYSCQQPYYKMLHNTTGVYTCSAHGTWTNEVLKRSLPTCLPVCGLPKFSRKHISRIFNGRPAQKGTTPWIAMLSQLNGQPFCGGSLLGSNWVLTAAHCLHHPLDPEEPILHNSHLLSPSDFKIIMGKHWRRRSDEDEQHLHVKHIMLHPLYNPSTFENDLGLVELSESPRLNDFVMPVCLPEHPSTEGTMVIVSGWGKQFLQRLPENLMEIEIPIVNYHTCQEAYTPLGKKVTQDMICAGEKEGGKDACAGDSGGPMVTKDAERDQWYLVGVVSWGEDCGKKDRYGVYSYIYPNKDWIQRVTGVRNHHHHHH
For B1, the “rat MASP1 IC50” value was 11 nM. In the case of B2, the “rat MASP1 IC50” value is reported as 28 nM. With B3 the “rat MASP1 IC50” value was 72 nM. For B4, the “rat MASP1 IC50” value was 330 nM. With B5 the “rat MASP1 IC50” value was 19 nM. In the case of B6, the “rat MASP1 IC50” value is reported as 120 nM. B7 was tested, and the “rat MASP1 IC50” value was 230 nM. With B8 the “rat MASP1 IC50” value was 300 nM. In the case of B9, the “rat MASP1 IC50” value is reported as 13 nM. B10 was tested, and the “rat MASP1 IC50” value was 380 nM. With B11 the “rat MASP1 IC50” value was 35 nM. For B12, the “rat MASP1 IC50” value was 240 nM. In the case of B13, the “rat MASP1 IC50” value is reported as 370 nM. With B14 the “rat MASP1 IC50” value was 240 nM. With B15 the “rat MASP1 IC50” value was 59 nM. For B16, the “rat MASP1 IC50” value was 130 nM.
